According to patent US20210318312A1 (TRUSTEES OF PRINCETON UNIVERSITY, published 2021):

What was measured:
SIRT3, endogenous = biological target: T1, SIRT3, endogenous (human, UniProt Q9NTG7 102-399, limits assumed); assay: immunoaffinity purification of SIRT4-EGFP from MRC5 mitochondria with mass spectrometry (IP-MS), SAINT scoring
T1 sequence (looked up): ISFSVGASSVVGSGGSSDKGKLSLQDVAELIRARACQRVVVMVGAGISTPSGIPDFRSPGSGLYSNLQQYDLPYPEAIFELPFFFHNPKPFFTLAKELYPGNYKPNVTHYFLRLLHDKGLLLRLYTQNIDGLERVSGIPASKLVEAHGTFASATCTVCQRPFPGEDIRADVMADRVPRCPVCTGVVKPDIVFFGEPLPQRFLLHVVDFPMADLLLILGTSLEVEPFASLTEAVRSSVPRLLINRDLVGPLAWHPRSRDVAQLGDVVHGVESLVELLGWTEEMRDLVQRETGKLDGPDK
Protocol: Immunoaffinity Purification. SIRT4-EGFP and control EGFP immunoaffinity purifications (IPs) from MRC5 cells were performed using M270 Epoxy Dynabeads (Invitrogen, cat. #14302D) coupled with in-house generated rabbit anti-GFP polyclonal antibodies, as described previously²⁹. Pooled mitochondria from fractions 3 and 4 from the OptiPrep™ gradient were resuspended in 1 mL optimized Lysis Buffer (20 mM HEPES-KOH, pH 7.4, 0.1 M KOAc, 2 mM MgCl₂, 0.1% Tween-20, 1 μM ZnCl₂, 1 μM CaCl2)), with 0.6% Triton X-100, 200 mM NaCl, and 1/100 (v/v) protease inhibitor cocktail (Sigma, cat. #P8340). Lysed mitochondria were vortexed three times for 20 sec each, and mixed by rotation for 10 min at 4° C. Insoluble material (pellet) was removed by centrifugation at 5000×g for 10 min. The supernatant was collected and SIRT4-EGFP or free EGFP (negative control) was immunoisolated by incubation with 7 mg of GFP-coupled magnetic beads for 60 min at 4° C. […]
To investigate potential endogenous substrates of SIRT4, proteomics was used to define its endogenous mitochondrial protein interactions. […] Using direct fluorescence microscopy (co-localization with MitoTracker, FIG. 4) and density-based organelle fractionation (co-isolation with the mitochondrial COX IV, FIG. 1a), we confirmed its mitochondrial localization. […]

[1] = biological target: T2, dihydrolipoyllysine acetyltransferase (DLAT), endogenous (human, UniProt P10515 87-647, lipoyl-lysine at K132 and K259); assay: anti-GFP immunoaffinity purification from MRC5 mitochondria, western blot; confocal co-localization
T2 construct: Endogenous protein in mitochondrial lysates of MRC5 cells; also called E2 component of the PDHC
T2 sequence (looked up): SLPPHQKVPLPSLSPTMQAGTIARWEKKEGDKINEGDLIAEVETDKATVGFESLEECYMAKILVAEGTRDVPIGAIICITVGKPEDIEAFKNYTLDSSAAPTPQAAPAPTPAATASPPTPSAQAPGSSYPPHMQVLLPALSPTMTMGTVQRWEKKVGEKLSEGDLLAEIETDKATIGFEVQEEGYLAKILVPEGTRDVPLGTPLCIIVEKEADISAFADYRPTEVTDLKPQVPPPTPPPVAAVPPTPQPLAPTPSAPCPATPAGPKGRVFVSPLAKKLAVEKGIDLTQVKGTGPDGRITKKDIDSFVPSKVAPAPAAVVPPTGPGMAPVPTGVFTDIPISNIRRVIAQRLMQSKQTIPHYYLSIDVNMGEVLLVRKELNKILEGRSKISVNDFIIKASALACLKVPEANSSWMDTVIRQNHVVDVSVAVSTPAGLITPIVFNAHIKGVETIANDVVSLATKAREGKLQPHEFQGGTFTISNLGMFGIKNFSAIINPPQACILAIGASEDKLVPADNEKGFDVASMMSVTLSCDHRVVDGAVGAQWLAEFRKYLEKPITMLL
Protocol: (§1) Western Immunoblotting. 10 μg of protein from each fraction was resuspended in L SDS Sample Buffer. Each sample was subjected to SDS-PAGE, transferred to nitrocellulose membranes (GE Healthcare Life Sciences, cat. #45-000-929), and blocked in blocked in 5% (w/v) skim milk powder in Tris-buffered saline with 0.05% (v/v) Tween-20 (TBST) for 1 hr at RT. Membranes were probed according to manufacturer's instructions, with the following primary antibodies: mouse anti-GFP (Roche, cat. #11814460001), rabbit anti-LAMP1 (Abcam, cat. #ab24170), rabbit anti-COXIV (Cell Signaling Technology, cat. #4844), rabbit anti-DLAT (Santa Cruz Biotechnology, cat. #sc-32925), or rabbit anti-PDHX (Santa Cruz Biotechnology, sc-98752), for 1 h in TBST, followed by 1 hr incubation in corresponding horseradish peroxidase (HRP)-conjugated secondary antibodies (Jackson ImmunoResearch Laboratories). All antibody incubations were carried out at RT with gentle agitation, and blots washed three times with TBST for 10 min after each incubation. Immuno-targets were detected using ECL (GE Healthcare Life Sciences, cat. #RPN2106).
(§2) Immunoaffinity Purification. SIRT4-EGFP and control EGFP immunoaffinity purifications (IPs) from MRC5 cells were performed using M270 Epoxy Dynabeads (Invitrogen, cat. #14302D) coupled with in-house generated rabbit anti-GFP polyclonal antibodies, as described previously²⁹. […]

[2] = biological target: T3, PDH component X (PDHX), endogenous (human, UniProt O00330 54-501); assay: as above
T3 construct: Endogenous protein in mitochondrial lysates of MRC5 cells
T3 sequence (looked up): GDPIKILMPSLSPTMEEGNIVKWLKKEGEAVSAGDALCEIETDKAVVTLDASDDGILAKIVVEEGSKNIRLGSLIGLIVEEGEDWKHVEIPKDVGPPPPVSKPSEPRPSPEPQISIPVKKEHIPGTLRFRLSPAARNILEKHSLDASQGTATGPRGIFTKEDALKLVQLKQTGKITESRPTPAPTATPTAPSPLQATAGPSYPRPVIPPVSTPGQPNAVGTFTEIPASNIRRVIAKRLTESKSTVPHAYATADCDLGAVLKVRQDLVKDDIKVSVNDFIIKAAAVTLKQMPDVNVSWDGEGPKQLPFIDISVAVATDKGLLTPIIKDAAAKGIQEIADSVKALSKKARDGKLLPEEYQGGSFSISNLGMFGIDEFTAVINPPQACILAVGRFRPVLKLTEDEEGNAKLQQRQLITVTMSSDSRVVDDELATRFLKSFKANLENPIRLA
Protocol: as §1, §2

[3] = biological target: T2, dihydrolipoyllysine acetyltransferase …; assay: reciprocal immunoaffinity purification of DLAT from wild-type fibroblasts, western blot (FIG. 1F)

B1: SIRT4-EGFP (enzyme)
chain: IGLFVPASPPLDPEKVKELQRFITLSKRLLVMTGAGISTESGIPDYRSEKVGLYARTDRRPIQHGDFVRSAPIRQRYWARNFVGWPQFSSHQPNPAHWALSTWEKLGKLYWLVTQNVDALHTKAGSRRLTELHGCMDRVLCLDCGEQTPRGVLQERFQVLNPTWSAEAHGLAPDGDVFLSEEQVRSFQVPTCVQCGGHLKPDVVFFGDTVNPDKVDFVHKRVKEADSLLVVGSSLQVYSGYRFILTAWEKKLPIAILNIGPTRSDDLACLKLNSRCGELLPLIDPC
notes: Stably expressed in MRC5 fibroblasts and immunoisolated from mitochondrial lysate with anti-GFP beads; also called SIRT4-OE; not shown: EGFP (enhanced green fluorescent protein, ORF of pEGFP-N1), fused C-terminal of SIRT4; linker
- binding result (SIRT3, endogenous): no binding
- binding result [1]: binds
- binding result [2]: binds

B2: endogenous SIRT4 (enzyme)
chain: B1 chain
notes: Endogenous SIRT4 of wild-type MRC5 fibroblasts
- binding result [3]: binds
